Test results from the supplement of paper PMC9112550, “Optimization of the antimicrobial peptide Bac7 by deep mutational scanning” (BMC Biology, 2022).
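Also: peptides expressed intracellularly from a pBAD plasmid library in pooled LB shake-flask culture, induced with 0.3% L-arabinose, DNA abundance read by NGS, three biological replicates, DESeq2 with apeglm shrinkage.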

What follows are sequences tested on Escherichia coli TOP10 (assay: shrunken log2 fold change of peptide-encoding DNA abundance (4.5 h post-induction vs induction); higher = less antimicrobial activity (less host growth inhibition)). Conditions: time post-induction: 4.5 h; library: site-saturation at positions 5, 18, 19, 20.
With RRIRTRPPRLPRPRPRPFFSPRP the “shrunken log2 fold change” value was -0.135.
With RRIRTRPPRLPRPRPRPFGHPRP the “shrunken log2 fold change” value was -0.145.
With RRIRTRPPRLPRPRPRPFGPPRP the “shrunken log2 fold change” value was 0.204.
RRIRTRPPRLPRPRPRPFGRPRP was tested, and the “shrunken log2 fold change” value was 0.0376.
For RRIRTRPPRLPRPRPRPFHMPRP, the “shrunken log2 fold change” value was -0.13.
For RRIRTRPPRLPRPRPRPFIHPRP, the “shrunken log2 fold change” value was -0.0383.
For RRIRTRPPRLPRPRPRPFIMPRP, the “shrunken log2 fold change” value was -0.339.
RRIRTRPPRLPRPRPRPFKKPRP was tested, and the “shrunken log2 fold change” value was -0.102.
With RRIRTRPPRLPRPRPRPFKNPRP the “shrunken log2 fold change” value was 0.0716.
In the case of RRIRTRPPRLPRPRPRPFKTPRP, the “shrunken log2 fold change” value is reported as 0.0238.
RRIRTRPPRLPRPRPRPFKWPRP was tested, and the “shrunken log2 fold change” value was -0.121.
With RRIRTRPPRLPRPRPRPFMFPRP the “shrunken log2 fold change” value was -0.586.
RRIRTRPPRLPRPRPRPFMVPRP was tested, and the “shrunken log2 fold change” value was -0.291.
In the case of RRIRTRPPRLPRPRPRPFPHPRP, the “shrunken log2 fold change” value is reported as -0.247.
RRIRTRPPRLPRPRPRPFQYPRP was tested, and the “shrunken log2 fold change” value was -0.0476.
With RRIRTRPPRLPRPRPRPFRLPRP the “shrunken log2 fold change” value was -0.365.
With RRIRTRPPRLPRPRPRPFSGPRP the “shrunken log2 fold change” value was -0.0204.
In the case of RRIRTRPPRLPRPRPRPFSNPRP, the “shrunken log2 fold change” value is reported as -0.405.
For RRIRTRPPRLPRPRPRPFTLPRP, the “shrunken log2 fold change” value was -0.312.
RRIRTRPPRLPRPRPRPFTPPRP was tested, and the “shrunken log2 fold change” value was -0.0472.
RRIRTRPPRLPRPRPRPFTQPRP was tested, and the “shrunken log2 fold change” value was -0.487.
In the case of RRIRTRPPRLPRPRPRPFVAPRP, the “shrunken log2 fold change” value is reported as -0.0696.
For RRIRTRPPRLPRPRPRPFVGPRP, the “shrunken log2 fold change” value was -0.035.
For RRIRTRPPRLPRPRPRPFVSPRP, the “shrunken log2 fold change” value was 0.00713.
RRIRTRPPRLPRPRPRPFWCPRP was tested, and the “shrunken log2 fold change” value was -0.111.
RRIRTRPPRLPRPRPRPFWRPRP was tested, and the “shrunken log2 fold change” value was 0.112.
In the case of RRIRTRPPRLPRPRPRPFYVPRP, the “shrunken log2 fold change” value is reported as -0.45.
RRIRTRPPRLPRPRPRPGCEPRP was tested, and the “shrunken log2 fold change” value was -0.117.
With RRIRTRPPRLPRPRPRPGDIPRP the “shrunken log2 fold change” value was -0.119.
In the case of RRIRTRPPRLPRPRPRPGDVPRP, the “shrunken log2 fold change” value is reported as 0.0978.
For RRIRTRPPRLPRPRPRPGFLPRP, the “shrunken log2 fold change” value was 0.122.
In the case of RRIRTRPPRLPRPRPRPGFPPRP, the “shrunken log2 fold change” value is reported as -0.0413.
In the case of RRIRTRPPRLPRPRPRPGFYPRP, the “shrunken log2 fold change” value is reported as -0.159.
For RRIRTRPPRLPRPRPRPGHDPRP, the “shrunken log2 fold change” value was -0.108.
With RRIRTRPPRLPRPRPRPGHGPRP the “shrunken log2 fold change” value was 0.138.
With RRIRTRPPRLPRPRPRPGHLPRP the “shrunken log2 fold change” value was -0.377.
RRIRTRPPRLPRPRPRPGIKPRP was tested, and the “shrunken log2 fold change” value was -0.162.
For RRIRTRPPRLPRPRPRPGKIPRP, the “shrunken log2 fold change” value was 0.0168.
RRIRTRPPRLPRPRPRPGKKPRP was tested, and the “shrunken log2 fold change” value was -0.0783.
With RRIRTRPPRLPRPRPRPGKPPRP the “shrunken log2 fold change” value was 0.0978.
In the case of RRIRTRPPRLPRPRPRPGLKPRP, the “shrunken log2 fold change” value is reported as 0.0372.
In the case of RRIRTRPPRLPRPRPRPGMDPRP, the “shrunken log2 fold change” value is reported as 0.0475.
In the case of RRIRTRPPRLPRPRPRPGMHPRP, the “shrunken log2 fold change” value is reported as 0.0032.
RRIRTRPPRLPRPRPRPGNRPRP was tested, and the “shrunken log2 fold change” value was 0.192.
For RRIRTRPPRLPRPRPRPGQAPRP, the “shrunken log2 fold change” value was -0.228.
RRIRTRPPRLPRPRPRPGRYPRP was tested, and the “shrunken log2 fold change” value was 0.123.
With RRIRTRPPRLPRPRPRPGSGPRP the “shrunken log2 fold change” value was 0.344.
In the case of RRIRTRPPRLPRPRPRPGSKPRP, the “shrunken log2 fold change” value is reported as 0.0896.
For RRIRTRPPRLPRPRPRPGTAPRP, the “shrunken log2 fold change” value was 0.166.
With RRIRTRPPRLPRPRPRPGTCPRP the “shrunken log2 fold change” value was -0.00643.
RRIRTRPPRLPRPRPRPGTDPRP was tested, and the “shrunken log2 fold change” value was -0.253.
For RRIRTRPPRLPRPRPRPGTEPRP, the “shrunken log2 fold change” value was 0.0787.
RRIRTRPPRLPRPRPRPGTGPRP was tested, and the “shrunken log2 fold change” value was 0.257.
RRIRTRPPRLPRPRPRPGVSPRP was tested, and the “shrunken log2 fold change” value was -0.221.
For RRIRTRPPRLPRPRPRPGVTPRP, the “shrunken log2 fold change” value was 0.276.
In the case of RRIRTRPPRLPRPRPRPHADPRP, the “shrunken log2 fold change” value is reported as 0.0427.
For RRIRTRPPRLPRPRPRPHAFPRP, the “shrunken log2 fold change” value was -0.128.
In the case of RRIRTRPPRLPRPRPRPHAMPRP, the “shrunken log2 fold change” value is reported as -0.31.
RRIRTRPPRLPRPRPRPHDEPRP was tested, and the “shrunken log2 fold change” value was 0.00408.
For RRIRTRPPRLPRPRPRPHDLPRP, the “shrunken log2 fold change” value was -0.0128.
With RRIRTRPPRLPRPRPRPHDPPRP the “shrunken log2 fold change” value was -0.283.
For RRIRTRPPRLPRPRPRPHGCPRP, the “shrunken log2 fold change” value was 0.14.
For RRIRTRPPRLPRPRPRPHHKPRP, the “shrunken log2 fold change” value was -0.614.
RRIRTRPPRLPRPRPRPHHQPRP was tested, and the “shrunken log2 fold change” value was -0.272.
For RRIRTRPPRLPRPRPRPHKQPRP, the “shrunken log2 fold change” value was -0.148.
In the case of RRIRTRPPRLPRPRPRPHKSPRP, the “shrunken log2 fold change” value is reported as 0.119.
With RRIRTRPPRLPRPRPRPHMTPRP the “shrunken log2 fold change” value was -0.265.
RRIRTRPPRLPRPRPRPHNIPRP was tested, and the “shrunken log2 fold change” value was -0.455.
For RRIRTRPPRLPRPRPRPHNMPRP, the “shrunken log2 fold change” value was -0.651.
For RRIRTRPPRLPRPRPRPHNQPRP, the “shrunken log2 fold change” value was -0.369.
With RRIRTRPPRLPRPRPRPHQDPRP the “shrunken log2 fold change” value was -0.245.
In the case of RRIRTRPPRLPRPRPRPHQKPRP, the “shrunken log2 fold change” value is reported as -0.127.
RRIRTRPPRLPRPRPRPHQNPRP was tested, and the “shrunken log2 fold change” value was -0.253.
RRIRTRPPRLPRPRPRPHRHPRP was tested, and the “shrunken log2 fold change” value was -0.211.
In the case of RRIRTRPPRLPRPRPRPHRKPRP, the “shrunken log2 fold change” value is reported as -0.0762.
In the case of RRIRTRPPRLPRPRPRPHRLPRP, the “shrunken log2 fold change” value is reported as -0.387.
For RRIRTRPPRLPRPRPRPHSDPRP, the “shrunken log2 fold change” value was -0.00801.
For RRIRTRPPRLPRPRPRPHSRPRP, the “shrunken log2 fold change” value was 0.0646.
With RRIRTRPPRLPRPRPRPHTNPRP the “shrunken log2 fold change” value was 0.0124.
For RRIRTRPPRLPRPRPRPHWKPRP, the “shrunken log2 fold change” value was 0.00556.
RRIRTRPPRLPRPRPRPHYSPRP was tested, and the “shrunken log2 fold change” value was -0.0429.
RRIRTRPPRLPRPRPRPIAEPRP was tested, and the “shrunken log2 fold change” value was 0.0307.
RRIRTRPPRLPRPRPRPIAVPRP was tested, and the “shrunken log2 fold change” value was -0.213.
RRIRTRPPRLPRPRPRPICEPRP was tested, and the “shrunken log2 fold change” value was 0.0143.
RRIRTRPPRLPRPRPRPICWPRP was tested, and the “shrunken log2 fold change” value was -0.13.
For RRIRTRPPRLPRPRPRPIDLPRP, the “shrunken log2 fold change” value was -1.07.
In the case of RRIRTRPPRLPRPRPRPIDMPRP, the “shrunken log2 fold change” value is reported as 0.00748.
For RRIRTRPPRLPRPRPRPIELPRP, the “shrunken log2 fold change” value was -0.0636.
With RRIRTRPPRLPRPRPRPIETPRP the “shrunken log2 fold change” value was 0.108.
In the case of RRIRTRPPRLPRPRPRPIFMPRP, the “shrunken log2 fold change” value is reported as 0.0645.
In the case of RRIRTRPPRLPRPRPRPIGMPRP, the “shrunken log2 fold change” value is reported as 0.0258.
With RRIRTRPPRLPRPRPRPIIYPRP the “shrunken log2 fold change” value was -0.216.
In the case of RRIRTRPPRLPRPRPRPIKSPRP, the “shrunken log2 fold change” value is reported as -0.61.
For RRIRTRPPRLPRPRPRPILRPRP, the “shrunken log2 fold change” value was -0.0606.
For RRIRTRPPRLPRPRPRPINAPRP, the “shrunken log2 fold change” value was -0.175.
For RRIRTRPPRLPRPRPRPINLPRP, the “shrunken log2 fold change” value was -0.156.
For RRIRTRPPRLPRPRPRPIQAPRP, the “shrunken log2 fold change” value was 0.232.
RRIRTRPPRLPRPRPRPIRRPRP was tested, and the “shrunken log2 fold change” value was 0.0581.
With RRIRTRPPRLPRPRPRPISEPRP the “shrunken log2 fold change” value was 0.00252.
RRIRTRPPRLPRPRPRPITFPRP was tested, and the “shrunken log2 fold change” value was -0.108.
For RRIRTRPPRLPRPRPRPITMPRP, the “shrunken log2 fold change” value was -0.595.
In the case of RRIRTRPPRLPRPRPRPITVPRP, the “shrunken log2 fold change” value is reported as -0.154.
With RRIRTRPPRLPRPRPRPIVWPRP the “shrunken log2 fold change” value was -0.0862.
RRIRTRPPRLPRPRPRPKAKPRP was tested, and the “shrunken log2 fold change” value was -0.0262.
With RRIRTRPPRLPRPRPRPKAMPRP the “shrunken log2 fold change” value was 0.0836.
RRIRTRPPRLPRPRPRPKANPRP was tested, and the “shrunken log2 fold change” value was -0.00404.
RRIRTRPPRLPRPRPRPKAQPRP was tested, and the “shrunken log2 fold change” value was -0.0875.
In the case of RRIRTRPPRLPRPRPRPKCSPRP, the “shrunken log2 fold change” value is reported as -0.0669.
RRIRTRPPRLPRPRPRPKCYPRP was tested, and the “shrunken log2 fold change” value was -0.0601.
